The values that follow come from patent publication US20110059095A1 (Regeneron, published 2011).

In test [1] the target is T1, Peptide B (human PAR-2), unbiotinylated (Human).
T1 construct: also called Peptide B No Biotin
T1 peptide: SLIGKVDGTSHVTG
Briefly: SPR, antibody captured. In general terms: SPR reads the build-up and loss of mass on a sensor chip optically.

Test [2] concerns the target T1, Peptide B (human PAR-2), unbiotinylated. Briefly: SPR, antibody captured.
Test [3] has as its target T2, Peptide F (monkey PAR-2), N-terminal biotinylated (Monkey (Macaca mulatta), N-terminal biotin via G4S linker).
T2 construct: also called Peptide F N-Term
Description: SPR, antibody captured.

The target in test [4] is monkey PAR-2 (monkey). Description: cell-based or functional assay.
Test [5] addresses rat PAR-2 (rat, UniProt Q63645 37-397). Briefly: cell-based or functional assay.
Test [6] concerns the target full length human PAR-2 (human, UniProt P55085 26-397). Description: cell-based or functional assay.

Sequence of full length human PAR-2 (P55085 26-397 G138A limits assumed): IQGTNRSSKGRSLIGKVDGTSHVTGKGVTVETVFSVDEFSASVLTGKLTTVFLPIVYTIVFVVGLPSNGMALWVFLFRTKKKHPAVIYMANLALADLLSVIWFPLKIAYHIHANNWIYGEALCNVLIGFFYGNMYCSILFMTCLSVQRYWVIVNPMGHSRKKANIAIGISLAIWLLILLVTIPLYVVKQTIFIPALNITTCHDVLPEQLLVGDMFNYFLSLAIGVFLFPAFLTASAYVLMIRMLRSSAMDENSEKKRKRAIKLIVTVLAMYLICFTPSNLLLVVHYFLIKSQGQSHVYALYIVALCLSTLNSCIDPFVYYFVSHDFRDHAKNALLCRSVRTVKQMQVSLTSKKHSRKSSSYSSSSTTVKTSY
T2 sequence (peptide, as listed by the source): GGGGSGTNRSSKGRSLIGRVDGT
Sequence of rat PAR-2 (Q63645 37-397): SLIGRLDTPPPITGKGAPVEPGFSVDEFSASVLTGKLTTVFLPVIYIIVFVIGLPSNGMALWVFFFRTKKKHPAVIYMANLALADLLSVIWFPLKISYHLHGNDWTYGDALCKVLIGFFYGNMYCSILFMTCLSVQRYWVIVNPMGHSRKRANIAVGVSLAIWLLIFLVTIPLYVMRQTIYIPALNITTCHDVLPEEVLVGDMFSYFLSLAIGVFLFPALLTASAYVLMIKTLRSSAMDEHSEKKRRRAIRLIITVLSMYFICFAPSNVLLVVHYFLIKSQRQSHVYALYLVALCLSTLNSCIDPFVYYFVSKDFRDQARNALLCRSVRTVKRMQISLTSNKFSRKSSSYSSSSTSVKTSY

B1: H4H583P (antibody, human IgG4, V domains shown)
VH: QVQLVESGGGVVQPGMSLRLSCTASGFTFRRYGMHWVRQAPGKGLEWVAVIWYDGSNKYYADSVKGRFTITRDNSKNTLYLQMNSLRAEDTAIYFCASEITIGDWFDPRGQGTLVTVSS
VL: AIQMTQSPSSLSASVGDRVTITCRASQGIRNDLGWFQQKPGKVPKLLIYAASTLHSGVPSRFSGSGFGTDFTLTISSLQPEDFATYYCLQDFNYPLTFGGGTKVEIK
notes: also called H1H583P variable regions
In the case of B1, in test [1], the binding result is recorded as “no binding (tested: 15.6 to 250 nM peptide)”.

B2: H4H588N (antibody, human IgG4, V domains shown)
VH: EVQLLESGGGLVQPGGSLRLSCAASGFTFSSYAMTWVRQAPGKGLYWVSAISGGRGSAYYADSVKGRFTISRDNSKNTLYLQMNSLRAEDTAVYYCAKEGDSGYDLAYWGRGTLVTVSS
VL: DIQMTQSPSSLSASVGDRVTITCRARQGISNNLAWLQQKPGKAPKSLIYAASSLQSGIPSKFSGSGSGTYFTLTISSLQPEDFATYYCQQYKSSPLTFGGGTKVEIK
notes: also called H2M588N variable regions
As to B2, in test [2], binding was put at a Kd of 84 nM and the T1/2 turned out to be 9 min. Moreover, in test [3], the affinity, expressed as Kd, was 7.1 nM and the T1/2 worked out at 24 min.

B3: H4H581P (antibody, human IgG4, V domains shown)
VH: QVQLVESGGGVVQPGRSLRLSCVASGFTFSRYGIHWVRQAPGKGLEWVIVISYDGINKYYADSVKGRFTISRDNSKNTVYLQMNSLRAEDTAVYYCAKGDFWSGYFDYWGQGTLVTVSS
VL: DIVMTQTPLSSPVTLGQPASISCRSSQSLVHSDGNTYLSWLHQRPGQPPRLLIYKISNRFSGVPDRFSGSGAGTDFTLQISRVEAEDVGIYYCMQATQFPTFGGGTKVEIK
notes: also called mAb H4H581P; H1H581P variable regions
Regarding B3, in test [4], the “H4H581P IC50, NF-kB-luciferase, Bovine Factor Xa” value amounted to 0.9 nM; the “H4H581P IC50, NF-kB-luciferase, Human Kallikrein 5” value came out at 11 nM; the “H4H581P IC50, NF-kB-luciferase, Human Kallikrein 14” value turned out to be 11.6 nM; the “H4H581P IC50, NF-kB-luciferase, Human Pancreatic Trypsin” value (from here on “H4H581P IC50 … Human Pancreatic Trypsin”) came to 5.4 nM. Further, the “H4H581P IC50 … Human Pancreatic Trypsin” value in test [5] is 700 nM. Further, in test [6], the “H4H581P IC50, NF-kB-luciferase, Bovine Factor Xa” value was determined as 2.5 nM; the “H4H581P IC50, NF-kB-luciferase, Human Factor Xa” value worked out at 1.1 nM; the “H4H581P IC50, NF-kB-luciferase, Human Kallikrein 5” value came to 0.9 nM; the “H4H581P IC50, NF-kB-luciferase, Human Kallikrein 14” value was 1.2 nM. In test [6], the “H4H581P IC50 … Human Pancreatic Trypsin” value came to 1.9 nM and the “H4H581P IC50, NF-kB-luciferase, Tryptase” value was 3.5 nM.
